In patent US9340788B2 (priority 2007, dated 2016):
“Also recorded” adds a separate entry of the source.

B1: PDGFRα siRNA: "smart Pool" siRNA to hPDGFRα (Dharmacon), SEQ ID NO: 1-4 (nucleic acid)
chain 1: CGAGACUCCUGUAACCUUAUU
chain 2: GAGCUUCACCUAUCAAGUUUU
chain 3: GACAGUGGCCAUUAUACUAUU
chain 4: GAAUAGGGAUAGCUUCCUGUU
modifications: pool of four siRNAs, further chemistry not given here
B2: p110α siRNA: mixture of 4 RNAi oligos, "smart pool" from Dharmacon, against PI3K p110α, SEQ ID NO: 5-8 (nucleic acid)
chain 1: GCGAAAUUCUCACACUAUU
chain 2: GUGGUAAAGUUCCCAGAUA
chain 3: GCUUAGAGUUGGAGUUUGA
chain 4: GACCCUAGCCUUAGAUAAA
modifications: pool of four siRNAs, further chemistry not given here

How the values were obtained:
Type in all cases: cell-based, Human cytomegalovirus
HCMV [1] = experiment: Viral attachment and internalization assay (pp65 immunofluorescence); conditions: HEL
Method: (A) HEL cells were pretreated with PBS (20 min 4° C.), IMC-3G3 (2 h, 37° C., 10 μg/ml), or PDGF-AA (20 min, 4° C., 10 ng/ml) prior to infection with HCMV (MOI of 1, 4° C., 1 h). Cells were returned to 37° C. for 30 minutes, and processed for pp65^HCMV and PDGFRα double immunofluorescence. […] All conditions were assayed in triplicate cultures. One hundred cells in 4 low magnification fields were counted. Bars represent SD.
Viral Attachment and Internalization Assays. Mouse fibroblasts and HEL cells (72 hours following siRNA transfections) were incubated with HCMV (MOI of 0.5) or mock treated for 1 hour at 4° C., after which cells were returned to 37° C. for 15, 30, or 60 min. Cells were fixed using methanol (20 min) and processed for pp65 immunofluorescence. Four low power fields were counted for each condition and pp65 positive were recorded for each 100 cells. Internalization assays were repeated twice.

HCMV [2] = experiment: Plaque formation assay; conditions: HEL; CMV-GFP MOI of 1; siRNA knockdown at time of infection; counted at 14 dpi
Method: HEL cells transfected with PDGFRα siRNA and control cultures were infected with CMV-GFP (MOI of 1), as described in FIG. 8. Unabsorbed viruses were washed and cells were returned to 37 C. 24 h later, supernatant was harvested and used to infect naïve HEL cultures (6 wells/condition) which were monitored daily for 14 days under the fluorescence microscope for plaque formation. Photomicrographs show representative examples of the CMV-GFP infected cells at 2 and 12 days post infection (2 dpi and 12 dpi, respectively). b. Average plaques counted in 4 separate low magnification fields for each well at 14 dpi. […] As receptor levels return to normal (12 dpi), few infected (green fluorescent) cells were detected in the PDGFRα siRNA treated cultures (a, lower right panel), without formation of plaques. Plaque formation assays were repeated twice. Average counts (n=12)±SD are shown.
Plaque Formation Assays. Plaque formation was assayed. Confluent HEL cells in 6 well cluster plates were incubated with Towne-GFP (MOI of 1, 1 hr) in 0.5 ml growth media. Cells were washed and returned to 37° C. (in complete growth media). 24 h later supernatant was harvested and used to infect naïve HEL cultures which were monitored for plaque formation for 6-14 days. […] At day 14, plaques in ten low magnification fields/condition were counted (each experimental condition was tested in 6 independent wells).

HCMV [3] = experiment: IE1 immunofluorescence of HCMV infected HEL cells
Method: HEL cells were transfected with PDGFRα siRNA (smart pool, Dharmacon) or non-targeting control siRNA (Dharmacon) for 48-60 hours when maximum protein knockdown is achieved (panels a and b. Also see FIG. 3d). Cells were then infected with Towne, AD169, TR, or CMV-GFP strains of HCMV for 1 hour, washed and returned to 37° C. in complete growth media. Supernatants obtained from these cultures were used in subsequent assays measuring production of infectious virus as described below. […] Cultures infected with supernatants from GFP-CMV treated cells were monitored daily under the fluorescence microscope. Over 40% of the control siRNA treated cells expressed CMV-GFP 1 day post infection (c, 1 dpi) and this number increased to 100% by day 6 (c, 6 dpi). Note the appearance of “plaques”-like groups of cells in control siRNA transfected cells (c, 3 and 6 dpi). […]
Measurements of Infectious Virus Production. […] A duplicate set of cultures was analyzed by immunofluorescence at 12 hours post infection (hpi) to assess percent of IE1 positive cells, as a measure of “primary infection”. […] 12 hpi cells were stained for IE1 and IE1 positive cells were counted amongst a total of 100 cells/low magnification microscopic field, 4 fields/condition. […] Where indicated, CMV-GFP infected cells were monitored daily under fluorescence microscope. […]

HCMV [4] = experiment: HCMV IE1 / viral gene expression, western blot of infected cells
Method: (A) pp65 immunofluorescence after HCMV treatment (1 h, 4° C.) followed by shifting to 37° C. for indicated times. Rows represent (top to bottom): HEL, PDGFRα null fibroblasts, parental fibroblasts, null fibroblasts overexpressing hPDGFRα, HEL transfected with control, or PDGFRα siRNA. Nuclei were stained with DAPI. (B) Average±S.D. pp65 positive/100 cells counted in triplicate from (A). (C) Mock or HCMV infected cells were analyzed by western blotting with the indicated antibodies. Lanes 1-4 indicate HEL, 325S, PDGFRα null and PDGFRα null over-expressing hPDGFRα, respectively. (D) HEL transfected with control or PDGFRα siRNA were mock (lanes 1) or HCMV-treated (lanes 2) and subjected to western blots with indicated antibodies. (E) Western blot of HEL and U87 lysates after infection with mock (lanes 1), HCMV (lanes 2), or HCMV pretreated with IMC-3G3 (10 μg/ml, 12 h, lanes 3) or Gleevec (100 nM, 1 h, lanes 4). […] 6 dpi, supernatants were used to infect naïve HEL cells, followed by IE1 immunostaining and quantification (secondary infection). […]
HUVEC cells were pre-treated with IMC-3G3 (10 μg/ml, Imclone, 12 h), or Gleevec (100 nM, 1 h) prior to HCMV or mock infection. 12 hours post-infection, cell lysates were analyzed by western blot for the presence of IE1 gene product. […]
(§1) Western Blot, Immunoprecipitation, and Immunofluorescence analyses. […] Cell lysates were analyzed by SDS-PAGE. […]

HCMV [5] = experiment: Measurements of infectious virus production; conditions: for infectious virus production (secondary infection): supernatants of siRNA treated HEL harvested 6 dpi used to infect naïve HEL, IE1 staining
Method: HEL cells were transfected with PDGFRα siRNA (smart pool, Dharmacon) or non-targeting control siRNA (Dharmacon) for 48-60 hours when maximum protein knockdown is achieved (panels a and b. Also see FIG. 3d). Cells were then infected with Towne, AD169, TR, or CMV-GFP strains of HCMV for 1 hour, washed and returned to 37° C. in complete growth media. Supernatants obtained from these cultures were used in subsequent assays measuring production of infectious virus as described below. One set of cultures (panels a and b) were used 12 hours post-infection (12 hpi) to measure the expression level of PDGFRα and IE1 by immunofluorescence. […] Cultures infected with supernatants from GFP-CMV treated cells were monitored daily under the fluorescence microscope. Over 40% of the control siRNA treated cells expressed CMV-GFP 1 day post infection (c, 1 dpi) and this number increased to 100% by day 6 (c, 6 dpi). Note the appearance of “plaques”-like groups of cells in control siRNA transfected cells (c, 3 and 6 dpi). […] To measure infectious virus production, supernatants from both control and PDGFRα siRNA treated cultures were harvested at 6 dpi and used to infect naïve HEL cells (secondary infection). […] These experiments were repeated twice.
Measurements of Infectious Virus Production. HEL cells (where indicated were treated with siRNA) were infected with HCMV Towne or CMV-GFP for 1 h, washed and grown for 6 days at 37° C. A duplicate set of cultures was analyzed by immunofluorescence at 12 hours post infection (hpi) to assess percent of IE1 positive cells, as a measure of “primary infection”. Six days post infection supernatant from these cells were centrifuged to exclude cell debris and used to infect naïve HEL cultures as described above. 12 hpi cells were stained for IE1 and IE1 positive cells were counted amongst a total of 100 cells/low magnification microscopic field, 4 fields/condition. These counts were used to determine the level of “secondary infection”—i.e., infectious virus production from the primary infected cells. Where indicated, CMV-GFP infected cells were monitored daily under fluorescence microscope. Each condition was assayed in triplicate.

HCMV [6] = experiment: HCMV IE1 / viral gene expression, western blot of infected cells; conditions: HEL; p110α knockdown vs non-targeting siRNA
HCMV [7] = experiment: HCMV pp65 western blot in HEL cells; conditions: siRNA 48 h prior to HCMV MOI of 1, western blot 2 h post-infection, indicates viral entry not inhibited
Method: HEL cells were transfected with siRNA against the PI3K p110α catalytic subunit (a mixture of 4 RNAi oligos, “smart pool” from Dharmacon) or non-targeting, control siRNA (Dharmacon) for 48 h prior to infection with HCMV (MOI of 1) for 1 hour. Cells were washed and cultured for 2 h-6 days. a. […] The mean number of IE1 positive cells is reduced by ˜50% in the PI3 Kp110α knockdown cultures—panel c**, p<0.01. PI3K p110α knock down is also significant (b, left panels, red fluorescence). However, unlike cells that lack a functional PDGFRα, PI3K p110α knock down cells are capable of producing infectious virus as shown by IE1 staining of the secondary infected cultures (panel d). A 10% decrease in infectious virus production in the cells treated with p110α siRNA is insignificant*, bars represent SD, […], panel c. Experiments were repeated twice, all conditions were assayed in triplicate. Similar results were obtained with both Towne-infected cultures (illustrated in this figure) and CMV-GFP.
Upper panel: HEL cells pretreated with anti-human PDGFRα antibody (10 ng/ml, for 30 min, clone AF-307-NA from R&D; lanes 1 and 4) or with AG 1295 (lane 3, […], from Calbiochem) were stimulated with Towne HCMV (lanes 2-4) or Mock infected (lane 1) for 10 min at 37 C. […]
as §1

Molecule	viral internalization (nuclear pp65) (HCMV [1]; siRNA knockdown, 60 min after shifting to 37° C., vs non-targeting control siRNA, p<0.001)	plaque formation (HCMV [2])	IE1 gene expression (primary infection) (HCMV [3]; HEL transfected with siRNA 48-60 h, 12 hpi, vs control siRNA)	viral gene expression (IE1 and pp65) (HCMV [4]; HEL cells pre-treated with siRNA, western blot, compared to controls)	CMV-GFP expression (HCMV [5]; siRNA treated HEL cells monitored daily under fluorescence microscope, 1-6 dpi)	infectious virus production (secondary infection) (HCMV [5])	viral gene expression (HCMV [6])	viral entry (HCMV [1]; p110α knockdown)	pp65 HCMV expression (HCMV [7])	reduction of mean number of IE1 positive cells (HCMV [3]; HEL, p110α knockdown cultures, p<0.01)	IE1 expression (HCMV [4]; HEL, siRNA 48 h prior to HCMV MOI of 1, western blot 2 h post-infection)	decrease in infectious virus production (HCMV [5]; HEL treated with p110α siRNA, secondary infection, insignificant)
B1	near complete blockade	completely blocked; also recorded: No plaques were formed	Near complete inhibition; also recorded: significantly inhibited	undetectable	did not express CMV-GFP	Near complete inhibition; also recorded: did not produce any infectious virus	–	–	–	–	–	–
B2	–	–	–	–	–	lower levels than controls	delay	allowed	unchanged	~50%	inhibited	10%
